Assay [1] addresses T1, recombinant human placental growth factor 2 (PlGF-2) (human, UniProt P49763-3 19-170).
T1 chain: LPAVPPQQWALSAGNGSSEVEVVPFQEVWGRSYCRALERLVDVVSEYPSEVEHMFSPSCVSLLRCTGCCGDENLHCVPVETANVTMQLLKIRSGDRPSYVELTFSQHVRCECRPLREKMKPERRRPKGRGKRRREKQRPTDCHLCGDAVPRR
The assay is described as follows: ELISA; competition with biotinylated VEGFR1, 1 ug/mL heparin. In general terms: ELISA stands for enzyme-linked immunosorbent assay.

In assay [2] the target is T1, recombinant human placental growth …. The assay is described as follows: ELISA; competition with biotinylated VEGFR1, no heparin.

B1: VEGFR1 domains 1 to 6 fused to a C-terminal Fc, biotinylated (Fc fusion)
chain: SKLKDPELSLKGTQHIMQAGQTLHLQCRGEAAHKWSLPEMVSKESERLSITKSACGRNGKQFCSTLTLNTAQANHTGFYSCKYLAVPTSKKKETESAIYIFISDTGRPFVEMYSEIPEIIHMTEGRELVIPCRVTSPNITVTLKKFPLDTLIPDGKRIIWDSRKGFIISNATYKEIGLLTCEATVNGHLYKTNYLTHRQTNTIIDVQISTPRPVKLLRGHTLVLNCTATTPLNTRVQMTWSYPDEKNKRASVRRRIDQSNSHANIFYSVLTIDKMQNKDKGLYTCRVRSGPSFKSVNTSVHIYDKAFITVKHRKQQVLETVAGKRSYRLSMKVKAFPSPEVVWLKDGLPATEKSARYLTRGYSLIIKDVTEEDAGNYTILLSIKQSNVFKNLTATLIVNVKPQIYEKAVSSFPDPALYPLGSRQILTCTAYGIPQPTIKWFWHPCNHNHSEARCDFCSNNEESFILDADSNMGNRIESITQRMAIIEGKNKMASTLVVADSRISGIYICIASNKVGTVGRNISFYITDVPNGFHVNLEKMPTEGEDLKLSCTVNKFLYRDVTWILLRTVNNRTMHYSISKQKMAITKEHSITLNLTIMNVSLQDSGTYACRARNVYTGEEILQKKEIT
modifications: biotin (EZ-Link Sulfo-NHS-Biotinylation Kit)
With B1, the 50% inhibitory concentration (IC50) was determined as 75.1 nM in assay [1] and 142 nM in assay [2].

By IC50 is commonly meant the midpoint of a concentration-inhibition curve.

(Values after paper PMC13208732 (2026).)
